From PMC8072286, “Gcn5-Related N-Acetyltransferases (GNATs) With a Catalytic Serine Residue Can Play Ping-Pong Too” (Frontiers in Molecular Biosciences, 2021)

Substrate: CCCCCCCC(=O)N(C)CCN
Test: steady-state acetyltransferase assay, substrate saturation
Format: biochemical, Pseudomonas aeruginosa
Conditions: AcCoA held at 0.5 mM; NANMO 0-3.5 mM, used as hydrochloride
Excerpt: steady-state acetyltransferase assay, substrate saturation on PA3944

B1: PA3944 (Pseudomonas aeruginosa PAO1) (protein)
chain: MNANLPPSAISELHGPRLLLRAWRDSDREAFAEMCADPQVMEFFPSVLDRAQSDALVDRVQAHFAERGYGPWALELPGEAAFIGFTGLFDVTMDVHFAPTVEIGWRLAPAYWGRGLAREAAETALDFAFERLRLPEVVAFTTPPNRRSWGLMERLGMRRDPAEDFDHPLLAADHPMRRHILYRVDAARWAER
notes: heterologous expression; N-terminal polyhistidine tag kept for kinetics, removed for crystallization; monomer in solution
Km: 1070 ± 30 µM
kcat: 0.41 s⁻¹
kcat/Km: 380 M⁻¹ s⁻¹
